Test results: patent publication US20250241939A1, “NUCLEIC ACID-BASED DELIVERY SYSTEMS AND USES THEREOF” (Kodikaz Therapeutic Solutions, Inc., priority 2022, published 2025)

B1: 30 (nucleic acid, listed as Homo sapiens)
chain: AATATTAATTTGGGCTCTCCAGAGAAACAGAACCAATAGATTACACATAGATATATAGAAAGACAGTTATTACAAGGAATTGGCTCACAGGATTATGTAGGCTGAGAAGTCCCATGACCTGCCGTCTGCAAGCTGGAGACCCAGGAAAGCCGGTGGTGTAGTTCCAGTCCGAGTTGGGAGGTCTGAGAATCGGGAGAGCTGACAGAGTAAGCTCTAGTTGCAGCCTGGAGTCCAGAGGGCAAAGAACACCTATGTCCCATCTCAAGCACGGTCAGGCGTCCCAGCTCAAGCAGAGAGAAAGAAGACTTTCCTGCTCAGCCTCCTTGCTCTAAGCAGCCTCCCGACGGATTGGATGAAGCTCACCCACGCTGGGGAGGGCAGCCACCTTCACTCAGTCCACCAATTCAAATGCTAATCTCATCCAGAAACACCCTCACAGGCACACCCAGAAATAATGTTTAGCCACATATCTGGGCATCCTGAGGACCAGTCAAATTGACTCATAAGTCTCACCATCATA
B2: 32 (nucleic acid, listed as Homo sapiens)
chain: CTCCATGTTCTGACCTCAGGTGATCTGCCCGCCTCCGCCTCCCATAAGTTCCTTCTGCACCTATTCCATTCCATCTGCAATGTCATCCTGGCCAACCTGTGAATGGGTATAGCAGGATAGTAAGTTAGTCCCAGTGTTTAGGCAGACTCCATAGACCAGATTTAACGTGTTTGTATAAACCGCATGGCTCGCTCTTACTCAGCCTTCGGGTCGGCCTTAAGATACACAGTTTTAAGAAAAGCATTGTCTTCACTCTTAGTGTAGATCAGGTCCTCCTCNCCCCCANCACGTTATGTCCCTGTCATTGAACATTATACTTTTATGAAGAATTGTGAGCTGTCTGAGATTTTACCTTACTTGCAAACTAACAAGTGGGCCTGCCATAGTTTCATGTCTGGCAGAAGACTCCAACAGGTCAGAGATTTTCATCTGTCTTGTTCACTATTGTCTACATAGTGCCTGGAAAAATGCCTGGCACACAGTAAACCCTCAATCAGTATTTTATGAATGAGTGAAC
modifications: misc_difference 279 a, c, t, g, unknown or other; misc_difference 286 a, c, t, g, unknown or other
B3: 33 (nucleic acid, listed as Homo sapiens)
chain: TGTGTTAGTCAGGATAGGCTAACCTCTGTAACACACAACCCCAATTTTTCAGTGGCTCAGAACAATAGGAGTTTCTTTCTTACTCATGTAAAGTCCAGGTGTGGCAGAAACTTGCGGGGGAGAAAGTCTACTCCACAGCATCACTCAGGGACCCAGGCTCCTGCCTTACGGTGGTTCCGCCATTTTCCAGGGCCTCGGAGTCCTCCATCCCATCTCCTCCATTCAGCTGGTGGATGTGGGAGGAGAGCGTGTATGAAAGACCACACAGAAGCTTTTTTTGGGCCAGGCTTTGAGACGGCGCACATCAGTTTCGCTCTTGTTGCCCAGGCTGGAGTGCAATGGCGCAATCTCGGCTCACCGCAAAAGACACTGGGAAATTTGGTCTGGCCATGTGTCTAGGAAGCAGAGGAGATGGGGTTTCATAAACTCCTGAACTCTCTCTACCACG
B4: 35 (nucleic acid, listed as Homo sapiens)
chain: AAGATGGGGAGGATGGTGGTGGAGCAGGCTGGGGAGATGAGGAGCTTGAGGGGCCTAGGAGCTAACCACCCATTCACTGTTTATGGGTGGGGTGGCTCCGGGCAGGTGGCCTGACCCCTCTAAACCTCAGTTTCCCCATCTGTAAAATGGGAGTAATTGTACCTGCCTCACGGGCATGTAGCAGGTGGGAGAGAGAGTAATACGGGCAAGACGTCTAGTGCAGTGGCTGGAACATAACAAGCACCCAGCAAGTGGTGGCCCCATTGCT
B5: 39 (nucleic acid, listed as Homo sapiens)
chain: GTATTTAGATTCCCAGACTTTGGAGCCAGATCGGCTGAGTTCAAACCCTGTCTGTGCAACTATCAGCTGTTCAGCTGTGTGACCTTGGGCAAGTTACTTAACCTCTCTGAACCCTGATTCCTCCTGCAAACGGTGGGAAAAATAATAGAACCAATCTCTCTGGGTTGCTGTAAGGATTAAATTAATTTACAGTGCATGTAACATGCTTACAGCAATGTCTGGCACACAGTAAGCACTAAGTATTTGTTGTTATTTGTCATC
B6: 41 (nucleic acid, listed as Homo sapiens)
chain: CCCTTGAACTTATTAAAATCTTTTATAATGTAGTACATTTACTGACTGCTTTCAGGCAGGCATGAGGACCTTTCACTCCATTTGCTCCATTGTCCCTTTTGAAGGATTCTTGTCATATATATAAAACCTCTTAAGACATAATGTTATTGTTTTATATACTCTTTAATCACCTACATCTTTGCACTTTAATATTTCCTAAATTTGCATTCTTCTCTCTGGGACTAGAAGACCTCAGCTTAGCGGTTCTTTTCATGTGGGCCTGAGAAATTTTCTCACTTTTTGTTTCACTTTCATTCTTGAAGGAACGTTTCACTGGTTATAGGATGCAAGGTTAGCGGTTATTCTCTTCTGCATCTTCCCACTGCATTGTCTTCTGAATCTTATAATTTATGTAAAAACATTAGTTGTCTGTCTTCCCATTGCTTCTGTGAAAATAATGCATGTTTTCCTCTGGTTGTTTTTGACATTTTCTTTGTGTCTGTTTCTCAGCAATTTTTCCATGATATATGCTCGGAGCGGGCTTACTTATCCTACACCCTGAATCTGTAGCTTGACGTCTTTTTGTCAACTTTGGAAAGTTTTTGGCATTATCTCATCAAATATTTCCCCTGTCCTGTTCTTGCTCTTCTCTTGCTGGAGTGCAGTCGTTCCTGTATTAGACCTTTGCATCATGTTCTAGGTATTTTTATCT
B7: 46 (nucleic acid, listed as Homo sapiens)
chain: CACCCAAGTCACCTCTTGAATGCTTTGCTGCTTAGACATTTCTTCTGCCAGATACCCTAAATAATCTCTCTCAAGTTCAAAGTTCCACAAATCTCTAGGGCAGGGGCAAAATGCCACCAGTCTGTTTGCTAAAACATAACAAGAGTCATCTTTGCTCCAGTTCCCAACAAATTCCTTATCTCCATCTGAGACCACCTTATCCTGGATTTCATTGTCCATATCATTATCAGCATTTTGGTCAAAGCCACTCCACAAGTCCCTAGGAAGTTCCAAACTTTCCCACATTTTCCTGTCTTCTTCTGAGGCCTCCAACCTATTCCACCCTCTGTCTGTTACCCAGTTCCAAAGTTGCTTCTACATTTTCAGGTGTCTTTTCAGCAGTGCCACACTCTACTGGTACTAATTTAC
B8: 47 (nucleic acid, listed as Homo sapiens)
chain: AGGCCTGGCACAGTGGCTCATGCGTGTAATCCCAACACTGCGGGAAGCTGAGGCAGGAGGATCACTTGAGCCCAGGAGCTCATGGCTGTAGTGAGCTGTGATTGCACCACTGCACTGCACTCCAGCCTGGGCAACAGCAAGACCCTGTCTCCAAAAAAAAAAAACAAAACAAATTAAT
B9: 49 (nucleic acid, listed as Homo sapiens)
chain: CTTTAACCTCCTTGTTACGTTTGTCTCTTCCAGAATCGAAGCTGTAAAACTACAAATGGTTCTTCAAATGGAGCCCCAGATGCAGTCCATGACTAAGATCTACCGCGGACCCCTGGACTGGCCTGCTAGCCCATGCTCCAATGTTGATGACATTGAAGGCACCCCTCCCAAGGAAATCTCAACTGCACGACCCCTACTATGCCCCAATTCAGCATGAAGCAGTTAAGAGCGGTTGTCAGCCAACCTCCCCAACAGCACTTGGGTTTTCCTGTTGAGAGGTGGGACTGAGAGA

Tested on: MIA (pancreatic cancer) cell genome
Assay: ctDNA coculture with MIA cells, whole genome sequencing: genomic insertion sites, transposons at insertion points and SNVs (pancreatic cancer)
Type: cell-based, human
Conditions: for blast orientation / blast chr / Transposon orientation / Distance from insertion / Location relative to insertion: TABLE 8, pancreatic cancer co-culture; for blast orientation: BLAST alignment orientation; for blast chr: chromosome with the longest result for BLAST analysis of the full contig; for Transposon orientation: compared with the human reference genome; for Distance from insertion: distance between insertion and the transposon (0 if they overlap); for Location relative to insertion: location of the transposon relative to the insertion on the contig; for Gene / Location / No. SNP / Chr location: TABLE 4; for Gene: gene at identified genomic insertion site; for Location: identified genomic insertion site, chromosome; for No. SNP: number of single nucleotide variants (SNVs or SNPs) identified, polynucleotides for pancreatic cancer cells; for Chr location: position on the chromosome of the identified genomic insertion site
Method: The integration of ctDNAs into the host cell genome was evaluated. ctDNA was extracted from patient plasma, cultured for 24 hours with cells of a matching cancer cell type or non-matching cancer cell type, and whole genome sequencing was performed. The cell lines used were MM1s (multiple myeloma, MM) and MIA (pancreatic cancer, PC).
The sequence data was used to reconstruct genomic contigs for each experimental condition by de novo assembly. […] Coculture contigs carrying a ctDNA insertion were identified using NucDiff analysis.
Experiments were designed to identify the presence of transposons in ctDNA fragments. To map ctDNA genomic junctions more precisely, a PACBIO probe was ligated to multiple myeloma and pancreatic cancer ctDNA samples to label their 5′ and 3′ ends. Whole-genome sequencing of DNA from cells with ctDNA genomic integration was done using the Illumina platform. De novo assembly was performed on the sequencing output. ctDNA contigs containing PACBIO adaptor were then matched to those contigs containing inserted ctDNA sequences identified in the coculture experiments. Transposable element on ctDNA sequences at the insertion points (<100 nucleotides from transition point between cell and ctDNA) were detected and classified using RepeatMaster.
A search was conducted for transposons that preferentially target cells of matching tumor types. The lists of transposons identified at the ctDNA insertion point in matching and mismatched coculture conditions were compared (e.g., MM ctDNA with MM cells or PC cells). Transposons were selected that were uniquely or preferentially inserted in the matching conditions.
Whole-genome sequencing and Whole exon sequencing: ctDNA was extracted from 10 MM and 10 PC patients. DNA from CD138 (+) cells and from cell lines used in in vitro experiments (MM1s and MIA) was extracted using Blood & Cell Culture DNA Mini Kit (Quiagen, MD). DNA from […] paraffin embedded pancreatic tumors was obtained using QIAamp DNA FFPE Tissue Kit Print (Qiagen, MD).
After extraction, ctDNA was ligated to the PACBIO adaptor ([…]) using the ABM DNA Library Prep Kit for Illumina Sequencing (Applied Biological Materials Inc. Canada). PACBio-labeled ctDNA and regular ctDNA were subjected to standard methods for library preparation and sequencing using Illumina and Agilent protocols, respectively. Applied Biological Materials Inc. prepared the libraries and performed whole-exon and -genome sequencing.
Identification of transposable elements and its nucleotide variants: To determine the locations of transposable-like regions in contigs, sequences were analyzed and transposable elements (TEs) were identified and classified using RepeatMasker version 4.1.0 and the Dfam database (release 3.1) of repetitive DNA families was used as a reference for identifying repeats in ctDNA contig sequences that were part of qualifying structural events. For each repeat sequence identified by RepeatMasker, the overall frequency of the specific repeat (e.g., for AluSp or L1) and their parent class (e.g., SINE) was computed.
Once the TE elements were identified, hit repeats/TE sequences, unique contigs for all samples, and insertion sequence were aligned with MAFFT software version. Mutations in TE sequences were identified by comparison of nucleotides at each position in the multiple sequence alignment with the “Biostrings” R package (version 4.1). A position was considered to contain mutation if the substitution was present in contigs of all samples.

Row | Molecule | blast orientation | blast chr | Transposon orientation | Distance from insertion | Location relative to insertion | Gene | Location | No. SNP | Chr location
1 | L1ME4b | Plus/Plus | chr7 | direct | +1930 | right |  |  |  | 
2 | Mam_R4 | Plus/Plus | chr9 | direct | 0 | intersect |  |  |  | 
3 | B1 |  |  |  |  |  | RAB7A | Chr3 | 1 | 
4 | B2 |  |  |  |  |  |  | Chr21 | 5 | 
5 | B3 |  |  |  |  |  |  | Chr21 | 4 | 
6 | B4 |  |  |  |  |  |  | Chr14 | 0 | 
7 | B5 |  |  |  |  |  |  | Chr 2 | 1 | 27942978
8 | B6 |  |  |  |  |  | GRB10 | Chr 7 | 1 | 50660129
9 | B7 |  |  |  |  |  |  | Chr 5 | 2 | 107782747
10 | B8 |  |  |  |  |  | LINE1/Alu | Chr 10 | 4 | 14247220
11 | B9 |  |  |  |  |  | AIG1 | Chr 6 | 5 | 143409567
